Assay type in all cases: biochemical
Series [1] can be described thus: Enzyme-catalyzed acylation of 1,3-propanediol with ethyl acetate as acyl donor (Example 2). The conditions noted are these: for Conversion at 3:1 (monoester:diester) / Conversion at 9:1 (monoester:diester) / Maximum monoester yield: 1,3-propanediol 20 mM in ethyl acetate; for Maximum monoester yield: 29° C. As for the experimental part: (§1) Each diol was dissolved to a concentration of 20 mM together with 5 mM of 3-hexanone in ethyl acetate, ≧99% from Fluka, which was used as acyl donor and solvent. Reactions were started by adding 4 ml reaction solution to 20 mg enzyme carrier beads loaded with either wild-type or T40A mutated CALB. Reactions were run at 29° C. on a HLC rotating thermo block. Aliquots of 50 μl were taken, filtered through wool in a Pasteur pipette and diluted with 50 μl ethyl acetate prior to analysis. The 3-hexanon used as internal standard were present in the reaction solution throughout both reaction and analysis.
(§2) 5 mM 3-hexanone was used as internal standard in the reaction mixtures together with 20 mM diol. Aliquots were taken during the reaction by taking 50 μl of reaction sample. The samples were filtered though wool together with 50 μl ethyl acetate, thereby any remaining enzyme were removed and the reaction samples were diluted by a factor of 2 prior to analysis.
(§3) The reactions catalyzed by the T40A-mutant were rerun with 100 mg enzyme carrier beads for determination of maximum monoester yield. The reactions with 2-methyl-1,3-propanediol and 2-phenyl-1,3-propanediol were rerun at 100 mM concentration of diol and 50 mg enzyme carrier beads, both with CALB wild type and CALB T40A-mutant. This was done in order to determine the enantiomeric excess.
(§4) All reactions were analyzed on GC, Hewlett Packard 5890 series II. Two different 25 m×0.32 mm WCOT fused silica columns were used, depending on the different substrates and products that were analyzed. A polar GC-column with CP Chirasil-Dex CB coating was used for the reactions with 1,2-ethanediol and 1,3-propanediol. A non-polar GC-column with CP-SIL 5CB coating was used for the reactions with 1,4-butanediol, 2-methyl-1,3-propanediol and 2-phenyl-1,3-propanediol.
(§5) The response factor for each diol was determined in relationship to 3-hexanone. When all diol and mono-ester had converted to di-ester, the response factor for the di-ester could be determined in relationship to […]. The concentration of mono-ester in each reaction was determined by subtracting the concentration of di-ester from the starting concentration of diol.
(§6) A great difference in concentration between acyl donor and diol was accomplished in the reactions by using ethyl acetate as solvent and acyldonor and a diol concentration of 20 mM. Therefore the reactions was considered to irreversible, following the reaction scheme:
(§7) [formula] A, B and C corresponds to diol, monoester and diester, respectively. k1 and k2 respectively corresponds to the reaction rates of the acylation of diol and monoester.
(§8) The reaction rates are dependent on enzyme concentrations and the kcat/KM towards the substrates. By fitting the concentrations measured over time into the equations and using the enzyme concentration determined by active site titration, the following results were obtained.

Series [2] in a line: Enzyme-catalyzed acylation of 2-phenyl-1,3-propanediol with ethyl acetate as acyl donor (Example 2). The conditions noted are these: 2-Ph-1,3-propanediol 20 mM in ethyl acetate; for Maximum monoester yield: 29° C. On the procedure: as §1, §2, §3, §4, §5
Series [3] is described as follows: Acylation of 1,2-ethanediol in competition with 1-butanol (Example 4). As for the experimental part:
Additionally, 1-butanol, ≧99.5% from Riedel-de Haën, was used as a competing substrate.
25 mM decane ≧98% from Fluka, was used as internal standard.
Two different acyl donors were used:
Ethyl acetate, ≧99% from Fluka, used as both solvent and acyl donor
1 M Vinyl butyrate, >99% from Fluka, together with in MTBE, 99.5% from Lab-Scan, used as solvent.
Each diol was dissolved to a concentration of 100 mM together with 25 mM of decane in ethyl acetate, ≧99% from Fluka, used as acyl donor and solvent. Reactions were started by adding 3 ml reaction solution to 10 mg enzyme carrier beads loaded with wild-type CALB or 20 mg carrier beads loaded with T40A mutated CALB. Reactions were run at 29° C. in a temperature bath consisting of a HETO thermostat coupled to a Bom-roerder combined temperature bath and magnetic stirrer. 25 mM decane was used as internal standard were present in the reaction solution throughout both reaction and analysis. Aliquots of 60 μl were taken, filtered through wool in a Pasteur pipette together with 540 μl ethyl acetate prior to analysis. The filtration through wool removed any remaining enzyme from the reaction solution, and the reaction samples were diluted by a factor of 10 prior to analysis.
All reactions were analyzed on GC, Hewlett Packard 5890 series II. Two different 25 m×0.32 mm WCOT fused silica columns were used, depending on the different substrates and products that were analyzed. A polar GC-column with CP Chirasil-Dex CB coating was used for the reactions with 1,2-ethanediol. A non-polar GC-column with CP-SIL 5CB coating was used for the reactions with 1,4-butanediol.
(§9) The response factor for each diol was determined in relationship to decane. When all diol and mono-ester had converted to di-ester, the response factor for the di-ester could be determined in relationship to decane. The concentration of mono-ester in each reaction was determined by subtracting the concentration of di-ester from the starting concentration of diol.

Series [4] in a line: Enzyme-catalyzed acylation of 1,2-ethanediol with ethyl acetate as acyl donor (Example 2). The conditions noted are these: for Maximum monoester yield: 1,2-ethanediol 20 mM in ethyl acetate (acyl donor and solvent), 29° C.; for Conversion at 3:1 (monoester:diester) / Conversion at 9:1 (monoester:diester): 1,2-ethanediol 20 mM in ethyl acetate; for Conversion at 3:1 (monoester:diester): product distribution 75%; for Conversion at 9:1 (monoester:diester): product distribution 90%. On the procedure:
as §1, §2, §3, §4, §5, §6, §7, §8

Series [5] is described as follows: Enzyme-catalyzed acylation of 1,4-butanediol with vinyl butyrate as acyl donor (Example 3). The conditions noted are these: 1,4-butanediol 10 mM, 200 mM vinyl butyrate in MTBE, 29° C. On the procedure: Each diol was dissolved to a concentration of 10 mM together with 2 mM of decane ≧98% from Fluka and 200 mM vinyl butyrate >99% from Fluka in MTBE 99.5% from Lab-Scan, which was used as acyl donor and solvent. Reactions were started by adding 4 ml reaction solution to 20 mg enzyme carrier beads loaded with either wild-type or T40A mutated CALB. Reactions were run at 29° C. on a HLC rotating thermo block. Aliquots of 50 μl were taken, filtered through wool in a Pasteur pipette and diluted with 50 μl ethyl acetate prior to analysis. The decane used as internal standard were present in the reaction solution throughout both reaction and analysis.
All reactions were analyzed on GC, Hewlett Packard 5890 series II. A 25 m×0.32 mm WCOT fused silica non-polar GC-column with CP-SIL 5CB coating was used for the reactions.
as §9

Changes are numbered by the printed parent chain. Names and notes keep the numbering of the source. Bounds are passed on as bounds.

B1: WT: non-mutated Candida antarctica lipase B (CALB), SEQ ID NO: 2, immobilized on carrier beads (protein, listed as Candida antarctica)
chain: LPSGSDPAFSQPKSVLDAGLTCQGASPSSVSKPILLVPGTGTTGPQSFDSNWIPLSAQLGYTPCWISPPPFMLNDTQVNTEYMVNAITTLYAGSGNNKLPVLTWSQGGLVAQWGLTFFPSIRSKVDRLMAFAPDYKGTVLAGPLDALAVSAPSVWQQTTGSALTTALRNAGGLTQIVPTTNLYSATDEIVQPQVSNSPLDSSYLFNGKNVQAQAVCGPLFVIDHAGSLTSQFSYVVGRSALRSTTGQARSADYGITDCNPLPANDLTPEQKVAAAALLAPAAAAIVAGPKQNCEPDLMPYARPFAVGKRTCSGIVTP
modifications: immobilized on carrier beads
As for B1, the “Conversion at 3:1 (monoester:diester)” value worked out at 19% in series [1], 46% in series [2], 17% in series [4] and 17% in series [4] (listed as wild type). The “Conversion at 9:1 (monoester:diester)” value in series [1] is 10%; in series [4] it was less than 9%; in series [4] (listed as wild type), 9%. The Maximum monoester yield was 33% in series [1], 52% in series [2], 43% in series [4] and 43% in series [4] (listed as wild type). In addition, the Selectivity diol/monoester in series [1] (1,3-propanediol, ethyl acetate, listed as wild type) was determined as 0.94; in series [1] (1,3-propanediol, ethyl acetate, listed as wild type CALB), 0.9; in series [4] (1,2-ethanediol, ethyl acetate), 1.9. In addition, the Initial reaction rates in series [3] (ethyl acetate) amounted to 0.081 mol/g/min; in series [3] (vinyl butyrate) it was 0.41 mol/g/min. This molecule also yielded a Maximum monoester yields in series [5] of 25%.

B2: T40A: CALB mutant with single mutation Thr40Ala (SEQ ID NO: 4) (protein)
chain: B1 chain with T40X
modifications: T40 Mutant
Consider B2, for which the “Conversion at 3:1 (monoester:diester)” value in series [1] is 22%; in series [2] it was more than 95%; in series [4] it was 99%; in series [4] (listed as T40A CALB), 99%. Besides, the “Conversion at 9:1 (monoester:diester)” value is listed as 19% in series [1], 78% in series [4] and 78% in series [4] (listed as T40A CALB). The Maximum monoester yield in series [1] was 50%; in series [2], 55-65%; in series [4], 77%. Further, the Selectivity diol/monoester in series [1] (1,3-propanediol, ethyl acetate) is listed as 2.4; in series [4] (1,2-ethanediol, ethyl acetate) it was 7.7; in series [4] (1,2-ethanediol, ethyl acetate, listed as T40A CALB), 7.6. Further, the “Selectivity ratio diol/monoester T40A/WT” value in series [1] (1,3-propanediol, ethyl acetate) is 2.6; in series [4] (1,2-ethanediol, ethyl acetate) it was 4.0. Besides, the Initial reaction rates in series [3] (ethyl acetate) worked out at 0.002 mol/g/min; in series [3] (vinyl butyrate), 0.065 mol/g/min. The “Rate ratio, T40A/WT” value in series [3] (ethyl acetate) stood at 2.5%; in series [3] (vinyl butyrate), 16%. Besides, the “Selectivity towards diol over 1-butanol, compared with wild type CALB” value is reported as “higher” in series [3] (ethyl acetate as acyl donor and solvent (FIG. 9A)); “higher” in series [3] (vinyl butyrate, MTBE (FIG. 10A)). Also, the Maximum monoester yields in series [5] was found to be 44%.
